Source: patent US20120189666A1, “PHARMACEUTICAL FORMULATIONS CONTAINING MICROPARTICLES OR NANOPARTICLES OF A DELIVERY AGENT” (priority 2004, published 2012)
Where “and” joins values, the source holds several entries; their conditions need not be identical. Equal entries are not always repeated. Where two headings read alike, the source gives them in different places.

Assays:
[1] = Insulin from subcutaneous (SC) administration; details: insulin dose 0.05 mg/kg
Source text: (§1) This value was assumed to be constant in the estimates of absolute bioavailability.
(§2) The portal bioavailability provides an estimate of drug absorption from oral delivery. […] This value is used to estimate bioavailability relative to subcutaneous.

[2] = Insulin and 4-CNAB stability in simulated gastric fluid, HPLC; details: for Insulin % of theoretical: SGF
Procedure: The SGF was prepared with and without pepsin, a gastric enzyme. SGF pH 1.2 was prepared as per the USP NF 26 guidelines. 2 g sodium chloride and 3.2 g of pepsin were weighed and added to a suitable container, and deionized water was added to reach one liter in volume. If necessary, the pH was adjusted to 1.2 by addition of concentrated HCl or NaOH. A second SGF solution omitting the pepsin was also prepared.
Four 50 ml samples of SGF (two with pepsin and two without) were placed into a jacketed vessel connected to a circulating water bath set at 37° C. The solutions were stirred with magnetic stir bars for ten minutes to allow the solutions to reach 37° C. and reach thermal equilibrium.
The term “% of theoretical” as used herein, means the percent of the concentration (mg/mL) of withdrawn solution at the time-point the sample was taken as compared to the theoretical concentration (mg/mL) of the measuring component for experiment. The standard of deviation for the HPLC analysis is ±5%.

[3] = Stability of insulin in simulated intestinal fluid, HPLC
Procedure: The SIF solutions were prepared with and without pancreatic enzyme. SIF pH 7.5 was prepared as per the USP NF 26 guidelines. SIF was prepared by addition of 6.8 g monobasic potassium phosphate and 10 g of pancreatin into a suitable vessel, and deionized water was added to reach a total volume of one liter. If necessary, the pH was adjusted to 7.5 by addition of 0.2 N sodium hydroxide. A second SIF solution omitting the pancreatin, an intestinal enzyme, was also prepared.
Four 50 ml samples of SIF (two with pancreatin and two without) were placed into a jacketed vessel connected to a circulating water bath set at 37° C. The solutions were stirred with magnetic stir bars for ten minutes to allow the solutions to reach 37° C. and reach thermal equilibrium.

[4] = Estimates of bioavailability (absolute, portal, relative to subcutaneous); details: rat model
Source text: as §1, §2

[5] = Source text: as §1, §2
[6] = for AUC0->∞ / C0: individual animals
Source text: as §1

Insulin: Recombinant human zinc insulin
Tmax ([1]; per study, 0.05 mg/kg): 30 min | Glucose ([1]; time 0, study mean, 0.05 mg/kg): 83 mg/dL and 73 mg/dL and 60 mg/dL and 68 mg/dL and 65 mg/dL and 70 mg/dL | Glucose ([1]; time 15, study mean, 0.05 mg/kg): 66 mg/dL and 42 mg/dL and 40 mg/dL and 45 mg/dL and 59 mg/dL | Glucose ([1]; time 30, study mean, 0.05 mg/kg): 60 mg/dL and 59 mg/dL and 38 mg/dL and 39 mg/dL and 64 mg/dL | Glucose ([1]; time 45, study mean, 0.05 mg/kg): 61 mg/dL and 64 mg/dL and 42 mg/dL and 36 mg/dL and 40 mg/dL and 69 mg/dL | Insulin ([1]; time 180, study mean): 8.30 uU/ml | insulin degraded ([2]; SGF containing pepsin, first sampling point): 97% | insulin remained ([2]; SGF containing pepsin, first sampling point (0 minutes), 37° C.): 3.0% | time insulin is stable ([2]; SGF without pepsin): ≥ 2 h | Insulin % of theoretical ([2]; insulin with 4-CNAB and enzymes (pepsin), 37° C., 0 minutes): 3.0% | Insulin % of theoretical ([2]; insulin with 4-CNAB and no enzymes, 24 h): 0% | Insulin % of theoretical ([2]; insulin without 4-CNAB and with enzymes (pepsin), 37° C., 0 minutes): 3.0% | Insulin % of theoretical ([2]; insulin without 4-CNAB and without enzymes, 24 h): 0% | stability of insulin ([3]; SIF in presence of the enzyme (pancreatin)): degrades | stability of insulin ([3]; SIF without pancreatin): stable | Insulin % of theoretical ([3]; SIF, insulin with 4-CNAB and enzymes (pancreatin), 6 minutes): 5.4% | absolute bioavailability from SC [4]: approximately 56% | FPE (fH) ([5]; individual animals): 0.18 | AUC-IP, Average ([5]; portal administration, n = 5): 9.65 | maximum absolute bioavailability from oral delivery (100% GI absorption into the portal vein) ([5]; rat model, from intraportal administration): approximately 60% | AUC-JV, Average ([5]; systemic administration, n = 5): 15.53 | C0->∞/Dose, Average ([6]; IV, all doses (2.5, 8, 9 μg/kg)): 0.0053 kg/mL | AUC0->∞ ([6]; IV, dose 8 μg/kg): 99.35 ng·min/mL and 99.32 ng·min/mL and 103.4 ng·min/mL | C0 ([6]; IV, dose 8 μg/kg): 50.67 ng/mL and 52.64 ng/mL and 49.63 ng/mL | AUC0->∞, X ± SD ([6]; IV, dose 8 μg/kg, n = 3): 100.7 ± 2.4 ng·min/mL | AUC0->∞/Dose, X ± SD ([6]; IV, dose 8 μg/kg, n = 3): 0.0126 ± 0.0003 kg·min/mL | Vd, X ± SD ([6]; IV, dose 8 μg/kg, n = 3): 0.157 ± 0.005 L/kg | AUC0->∞ ([6]; IV, dose 9 μg/kg): 99.55 ng·min/mL and 75.67 ng·min/mL and 122.89 ng·min/mL | C0 ([6]; IV, dose 9 μg/kg): 46.79 ng/mL and 36.32 ng/mL and 55.30 ng/mL | AUC0->∞, X ± SD ([6]; IV, dose 9 μg/kg, n = 3): 99.4 ± 23.6 ng·min/mL | AUC0->∞/Dose, X ± SD ([6]; IV, dose 9 μg/kg, n = 3): 0.0110 ± 0.0026 kg·min/mL | C0, X ± SD ([6]; IV, dose 9 μg/kg, n = 3): 46.1 ± 9.5 ng/mL | Vd, X ± SD ([6]; IV, dose 9 μg/kg, n = 3): 0.201 ± 0.043 L/kg | kel, X ± SD ([6]; IV, dose 9 μg/kg, n = 3): 0.47 ± 0.02 min⁻¹ | AUC0->∞/Dose, X ± SD ([6]; IV, dose […], n = 5): 0.0062 ± 0.0011 kg·min/mL | Vd, X ± SD ([6]; IV, dose […], n = 5): 0.219 ± 0.068 L/kg | average insulin AUC0→∞/Dose ([6]; intravenous dosing): 0.0093 kg·min/mL
